Test results: paper PMC9482650, “Quantitative fragmentomics allow affinity mapping of interactomes” (Nature Communications, 2022)

T1: FRMPD1, Q5SYB0
T1 sequence (Q5SYB0 52-145, limits assumed, looked up): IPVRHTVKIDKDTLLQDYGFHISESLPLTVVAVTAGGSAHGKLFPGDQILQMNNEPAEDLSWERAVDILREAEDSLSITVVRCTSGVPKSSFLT

T2: MPP2, Q14168
T2 sequence (Q14168 180-250, limits assumed, looked up): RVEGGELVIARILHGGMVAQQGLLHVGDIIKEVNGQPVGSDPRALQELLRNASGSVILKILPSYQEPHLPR

T3: MPDZ_12, O75970
T3 sequence (O75970 1857-1958, limits assumed, looked up): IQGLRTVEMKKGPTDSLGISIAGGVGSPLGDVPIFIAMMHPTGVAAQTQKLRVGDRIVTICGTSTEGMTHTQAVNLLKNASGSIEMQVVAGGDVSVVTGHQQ

T4: TIAM2, Q8IVF5
T4 sequence (Q8IVF5 885-986, limits assumed, looked up): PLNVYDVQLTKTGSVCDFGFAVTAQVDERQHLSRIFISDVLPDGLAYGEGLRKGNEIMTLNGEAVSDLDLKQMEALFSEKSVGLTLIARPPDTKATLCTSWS

T5: MPP7, Q5T2T1
T5 sequence (Q5T2T1 134-230, limits assumed, looked up): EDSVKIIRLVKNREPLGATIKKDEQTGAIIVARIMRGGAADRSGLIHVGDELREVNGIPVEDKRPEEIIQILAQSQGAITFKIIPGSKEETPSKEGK

T6: APBA2_2, Q99767
T6 sequence (Q99767 654-744, limits assumed, looked up): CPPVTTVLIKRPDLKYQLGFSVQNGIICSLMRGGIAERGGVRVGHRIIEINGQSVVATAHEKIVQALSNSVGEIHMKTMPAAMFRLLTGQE

T7: NHERF3_3, Q5T2W1
T7 sequence (Q5T2W1 238-333, limits assumed, looked up): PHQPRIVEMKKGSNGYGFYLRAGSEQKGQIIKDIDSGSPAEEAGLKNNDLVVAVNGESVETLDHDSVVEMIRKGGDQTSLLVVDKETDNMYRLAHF

T8: SNTG1, Q9NSN8
T8 sequence (Q9NSN8 52-150, limits assumed, looked up): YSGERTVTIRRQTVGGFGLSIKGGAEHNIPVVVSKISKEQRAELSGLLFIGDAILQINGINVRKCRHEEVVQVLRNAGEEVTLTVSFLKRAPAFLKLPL

T9: PDZD7_3, Q9H5P4
T9 sequence (Q9H5P4 857-944, limits assumed, looked up): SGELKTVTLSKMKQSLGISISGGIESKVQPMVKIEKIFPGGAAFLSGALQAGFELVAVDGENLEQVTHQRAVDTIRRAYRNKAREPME

T10: CARD11, Q9BXL7
T10 sequence (Q9BXL7 662-765, limits assumed, looked up): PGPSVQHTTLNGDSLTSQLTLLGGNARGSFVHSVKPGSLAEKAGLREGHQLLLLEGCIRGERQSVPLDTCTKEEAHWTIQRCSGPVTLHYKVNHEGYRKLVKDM

T11: DVL3, Q92997
T11 sequence (Q92997 244-331, limits assumed, looked up): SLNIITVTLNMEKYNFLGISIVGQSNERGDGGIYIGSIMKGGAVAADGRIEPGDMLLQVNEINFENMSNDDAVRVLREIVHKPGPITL

T12: APBA2_1, Q99767
T12 sequence (Q99767 563-664, limits assumed, looked up): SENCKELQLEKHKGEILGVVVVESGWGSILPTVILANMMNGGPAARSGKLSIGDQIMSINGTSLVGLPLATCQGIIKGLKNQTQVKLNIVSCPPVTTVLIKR

T13: HTRA4, P83105
T13 sequence (P83105 378-476, limits assumed, looked up): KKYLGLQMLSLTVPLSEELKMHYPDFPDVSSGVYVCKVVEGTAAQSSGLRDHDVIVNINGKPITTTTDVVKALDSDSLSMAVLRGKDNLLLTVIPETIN

T14: LNX2_2, Q8N448
T14 sequence (Q8N448 334-432, limits assumed, looked up): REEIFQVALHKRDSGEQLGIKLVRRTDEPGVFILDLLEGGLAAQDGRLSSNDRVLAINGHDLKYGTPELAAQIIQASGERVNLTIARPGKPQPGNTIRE

T15: GRIP1_7, Q9Y3R0
T15 sequence (Q9Y3R0 999-1096, limits assumed, looked up): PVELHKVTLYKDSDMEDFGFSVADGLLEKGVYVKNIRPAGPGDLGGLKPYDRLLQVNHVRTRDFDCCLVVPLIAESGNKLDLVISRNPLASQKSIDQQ

B1: CRHR1, P34998 (peptide)
chain: FHSIKQSTAV
B2: EXOC4, Q96A65 (peptide)
chain: ATKDKKITTV

Assays:
Test in all cases: holdup assay
Design in all cases: key: below the threshold = too weak to quantify, mostly under pKd 3.1 to 4
Details in all cases: plain residues with an end cap or a label only (N-terminal biotin on a linker: ado-ado)
LIMK2, P53671 = target: LIMK2, P53671
Sequence of LIMK2, P53671 (P53671 143-248): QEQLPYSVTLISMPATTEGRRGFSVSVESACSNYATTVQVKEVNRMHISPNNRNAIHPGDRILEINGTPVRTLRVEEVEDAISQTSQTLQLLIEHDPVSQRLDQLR

FRMPD1, Q5SYB0 = target: T1, FRMPD1, Q5SYB0
MPP2, Q14168 = target: T2, MPP2, Q14168
MPDZ_12, O75970 = target: T3, MPDZ_12, O75970
ARHGEF12, Q9NZN5-2 = target: ARHGEF12, Q9NZN5-2
Sequence of ARHGEF12, Q9NZN5-2 (Q9NZN5 other isoform, or with tags, fused parts or gaps): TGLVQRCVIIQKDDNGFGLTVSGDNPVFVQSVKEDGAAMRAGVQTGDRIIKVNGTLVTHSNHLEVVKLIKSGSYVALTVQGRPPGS

Inadl_3, Q8NI35 = target: Inadl_3, Q8NI35
Sequence of Inadl_3, Q8NI35 (Q8NI35 359-469): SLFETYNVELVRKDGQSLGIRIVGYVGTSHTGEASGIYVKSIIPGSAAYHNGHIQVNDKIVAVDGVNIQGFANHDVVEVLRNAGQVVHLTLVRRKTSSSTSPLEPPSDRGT

MAST2, Q6P0Q8 = target: MAST2, Q6P0Q8
Sequence of MAST2, Q6P0Q8 (Q6P0Q8 1099-1202): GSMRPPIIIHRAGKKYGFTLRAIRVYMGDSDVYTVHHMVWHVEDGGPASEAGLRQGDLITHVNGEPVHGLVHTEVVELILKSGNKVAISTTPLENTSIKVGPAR

TIAM2, Q8IVF5 = target: T4, TIAM2, Q8IVF5
AHNAK1, Q09666 = target: AHNAK1, Q09666
Sequence of AHNAK1, Q09666 (Q09666 4-100): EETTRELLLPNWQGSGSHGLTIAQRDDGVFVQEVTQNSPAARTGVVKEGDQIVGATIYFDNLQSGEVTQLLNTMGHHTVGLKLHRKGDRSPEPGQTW

MPP7, Q5T2T1 = target: T5, MPP7, Q5T2T1
APBA2_2, Q99767 = target: T6, APBA2_2, Q99767
NHERF3_3, Q5T2W1 = target: T7, NHERF3_3, Q5T2W1
SCRIB_1, Q14160 = target: SCRIB_1, Q14160
Sequence of SCRIB_1, Q14160 (Q14160 718-814): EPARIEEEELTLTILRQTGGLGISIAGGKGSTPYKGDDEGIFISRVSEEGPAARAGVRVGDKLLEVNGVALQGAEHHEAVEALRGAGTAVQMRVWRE

TJP1_2, Q07157 = target: TJP1_2, Q07157
Sequence of TJP1_2, Q07157 (Q07157 181-274): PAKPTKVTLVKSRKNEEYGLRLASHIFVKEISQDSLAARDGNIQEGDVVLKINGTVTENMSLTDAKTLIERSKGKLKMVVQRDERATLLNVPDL

SNTG1, Q9NSN8 = target: T8, SNTG1, Q9NSN8
PDZD7_3, Q9H5P4 = target: T9, PDZD7_3, Q9H5P4
CARD11, Q9BXL7 = target: T10, CARD11, Q9BXL7
DVL3, Q92997 = target: T11, DVL3, Q92997
APBA2_1, Q99767 = target: T12, APBA2_1, Q99767
GRIP2_3, Q9C0E4 = target: GRIP2_3, Q9C0E4
Sequence of GRIP2_3, Q9C0E4 (Q9C0E4 238-339): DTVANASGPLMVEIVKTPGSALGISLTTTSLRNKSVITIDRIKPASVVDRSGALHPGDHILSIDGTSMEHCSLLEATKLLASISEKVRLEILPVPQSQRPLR

HTRA4, P83105 = target: T13, HTRA4, P83105
LNX2_2, Q8N448 = target: T14, LNX2_2, Q8N448
GRIP1_7, Q9Y3R0 = target: T15, GRIP1_7, Q9Y3R0

| Binder | pKd (LIMK2, P53671) | pKd (FRMPD1, Q5SYB0) | pKd (MPP2, Q14168) | pKd (MPDZ_12, O75970) | pKd (ARHGEF12, Q9NZN5-2) | pKd (Inadl_3, Q8NI35) | pKd (MAST2, Q6P0Q8) | pKd (TIAM2, Q8IVF5) | pKd (AHNAK1, Q09666) | pKd (MPP7, Q5T2T1) | pKd (APBA2_2, Q99767) | pKd (NHERF3_3, Q5T2W1) | pKd (SCRIB_1, Q14160) | pKd (TJP1_2, Q07157) | pKd (SNTG1, Q9NSN8) | pKd (PDZD7_3, Q9H5P4) | pKd (CARD11, Q9BXL7) | pKd (DVL3, Q92997) | pKd (APBA2_1, Q99767) | pKd (GRIP2_3, Q9C0E4) | further results |
| --- | --- | --- | --- | --- | --- | --- | --- | --- | --- | --- | --- | --- | --- | --- | --- | --- | --- | --- | --- | --- | --- |
| B1 | below the threshold | below the threshold | below the threshold | below the threshold | 4.63 | below the threshold | 5.35 | below the threshold | below the threshold | below the threshold | below the threshold | below the threshold | 4.01 | below the threshold | 3.64 | 4.36 | below the threshold | below the threshold | below the threshold | below the threshold | pKd (HTRA4, P83105): below the threshold; pKd (LNX2_2, Q8N448): 4.16; pKd (GRIP1_7, Q9Y3R0): below the threshold |
| B2 | below the threshold | below the threshold | below the threshold | below the threshold | 4.87 | below the threshold | 4.92 | below the threshold | below the threshold | below the threshold | below the threshold | below the threshold | 3.85 | 3.73 | 3.72 | 5.64 | below the threshold | below the threshold | below the threshold | 3.51 | pKd (HTRA4, P83105): 3.49; pKd (LNX2_2, Q8N448): 5.24; pKd (GRIP1_7, Q9Y3R0): 3.53 |
